We go through two molecules from paper PMC11960969, “Mdga2 deficiency leads to an aberrant activation of BDNF/TrkB signaling that underlies autism-relevant synaptic and behavioral changes in mice” (PLOS Biology, 2025).

Assay [1] relates to HeLa cells. The experiment in a line: Cell surface biotinylation of MDGA2 or V930I in transfected HeLa cells. The following applies: n = 4, Fig 7D. The class given is cell-based. From the text:
(§1) Fig 7 The autism spectrum disorder (ASD)-associated MDGA2 V930I mutation impairs the MDGA2-TrkB interaction and MDGA2’s inhibitory effect on the tyrosine kinase B (TrkB) signaling. (A) Schematic depiction of the WT human MDGA2 and its V930I mutation constructs that are tagged with GFP. (B, C) HeLa cells (B) and mouse primary neurons (C) transfected with MDGA2 (green) or V930I (green) were immunostained with an antibody against the plasma membrane protein ATP1A1 (red) and then observed by confocal microscopy. Scale bars = 10 μm. (D) Cell surface expression of WT MDGA2 or V930I in transfected HeLa cells was determined by surface biotinylation assays. Biotinylated (cell surface) protein levels were quantified by densitometry and normalized to total protein levels for comparison (WT MDGA2 levels were set to one arbitrary unit). n = 4 experimental replicates. (E) Mouse primary neurons were transfected with MDGA2, V930I, or ΔMAM. […] Immunoprecipitated protein levels were quantified by densitometry, normalized to respective inputs, and compared to those transfected with MDGA2 (set to one arbitrary units). n = 4 experimental replicates. […] Levels of phosphorylated proteins were quantified by densitometry, normalized to respective total protein levels and compared to controls (set to one arbitrary units). n = 6 experimental replicates. […]

The test system of assay [2] is TrkB signaling (pTrkB, pAkt, pmTOR). The experiment in a line: Immunoblotting of TrkB/Akt/mTOR phosphorylation in primary neurons transfected with MDGA2, ΔMAM or V930I. The format is cell-based, mouse. Particulars: Mdga2-/- neurons, n = 6, Fig 7F. Here is the method:
Fig 3 MDGA2 interacts with TrkB and suppresses TrkB activity. (A) Primary hippocampal neurons derived from Mdga2^ +/− (Het) mice and their wild-type (WT) littermates at DIV 7 were treated with different doses of BDNF for 30 min. Equal amounts of protein lysates were subjected to immunoprecipitation (IP) with an anti-TrkB antibody, followed by immunoblotting with an anti-phosphotyrosine (pTyr) antibody or the anti-TrkB antibody. The pTyr levels were quantified by densitometry, normalized to total TrkB levels, and then compared to those of WT controls. n = 3 per group. (B) WT mouse brain lysates were subjected to IP with an anti-MDGA2 antibody and a control IgG, and immunoblotted (IB) for the components indicated. mBDNF, mature BDNF; ImBDNF, immature BDNF. (C) Hippocampal neurons from WT mice at DIV 7 were immunostained with antibodies against MDGA2 (red) and TrkB (green), and then counter-stained with DAPI (blue). Images were acquired by a confocal microscope. Scale bar: 10 μm. (D) Surface plasmon resonance (SPR) analysis of the binding between recombinant MDGA2 protein and recombinant TrkB protein. TrkB was immobilized on a Biacore CM5 chip and tested for its binding with MDGA2 at the concentrations indicated. (E) Computer simulation of the binding mode of TrkB and MDGA2. The predicted binding domain of TrkB (the d5 domain) is highlighted by a red square and labeled in brown. The predicted binding domain of MDGA2 (the MAM domain) is highlighted by a red square and labeled in yellow. (F) HEK293T cells were co-transfected with TrkB-Flag and GFP-tagged full-length MDGA2 (MDGA2-GFP) or an MDGA2 deletion fragment lacking the entire MAM domain (ΔMAM-GFP). Cell lysates were subjected to IP with control IgG and antibodies against Flag or GFP, and immunoblotted for the components indicated. […] The scheme of MDGA2-ΔMAM is also shown. (G) HeLa cells were co-transfected with TrkB that is tagged with the N-terminal Venus fragment (TrkB-VN) and full-length MDGA2 or MDGA2-ΔMAM that are tagged with the C-terminal Venus fragment (MDGA2-VC or ΔMAM-VC) for 24 h. After immunostaining with antibodies against MDGA2/MDGA2-ΔMAM (pink) and TrkB (red), cells were observed by confocal microscopy. Venus signal (green) indicates the interaction between MDGA2 and TrkB. Schematic diagrams depicting the BiFC assay are also shown. Scale bars: 10 μm. (H, I) Equal amounts of protein lysates from primary neurons derived from Het, KO, and their WT littermate mice (H), and from WT primary neurons transfected with GFP control, MDGA2-GFP or ΔMAM-GFP (I) were subjected to IP with IgG and an anti-BDNF antibody, and then immunoblotted for the components indicated. Immunoprecipitated TrkB levels were quantified by densitometry, normalized to input levels, and compared to respective controls (set to one arbitrary units). n = 3 per group. (J) Neurons derived from KO mice were transfected with GFP control (Ctrl), MDGA2-GFP, or MDGA2-ΔMAM-GFP, and neurons derived from their WT littermates were transfected with GFP control (Ctrl). Equal amounts of protein lysates were subjected to immunoblotting for the proteins indicated. Levels of phosphorylated proteins were quantified by densitometry, normalized to respective total protein levels and compared to controls (set to one arbitrary units). n = 6 per group. Data represent mean ± SEM. P-values were determined by two-tailed unpaired Student t-test in (A) and one-way ANOVA with Tukey’s multiple comparisons test in (H, I, J). *p < 0.05, **p < 0.01, ***p < 0.001, ns: not significant. The data underlying this figure can be found in S1 Data, specifically in the sheet labeled “Figure 3”.
Fig 7 The autism spectrum disorder (ASD)-associated MDGA2 V930I mutation impairs the MDGA2-TrkB interaction and MDGA2’s inhibitory effect on the tyrosine kinase B (TrkB) signaling. (A) Schematic depiction of the WT human MDGA2 and its V930I mutation constructs that are tagged with GFP. […]
On the technique in general: A western blot detects proteins with antibodies after separation by electrophoresis.

Assay [3] has as its system TrkB. Kind of assay: Co-IP of MDGA2, V930I or ΔMAM with TrkB in mouse primary neurons. The format is binding. The following applies: n = 4, Fig 7E.
Text: as §1

Assay [4] relates to cell membrane localization in HeLa cells and mouse primary neurons. The experiment in a line: Immunostaining of membrane localization of MDGA2, ΔMAM or V930I in transfected cells. The format is cell-based. Particulars: HeLa cells and mouse primary neurons, Fig 7B, 7C.
Text: as §1

The test system of assay [5] is ASD animal models. Particulars: cited from earlier work.
In assay [6] the test system is TrkB. The experiment in a line: BDNF-induced TrkB tyrosine phosphorylation in primary hippocampal neurons (IP anti-TrkB, immunoblot pTyr). The following applies: primary hippocampal neurons DIV 7, 30 min; Mdga2+/- and Mdga2-/- vs WT neurons; Fig 3A, S3A. The format is cell-based, mouse. The procedure: Fig 3 MDGA2 interacts with TrkB and suppresses TrkB activity. (A) Primary hippocampal neurons derived from Mdga2^ +/− (Het) mice and their wild-type (WT) littermates at DIV 7 were treated with different doses of BDNF for 30 min. Equal amounts of protein lysates were subjected to immunoprecipitation (IP) with an anti-TrkB antibody, followed by immunoblotting with an anti-phosphotyrosine (pTyr) antibody or the anti-TrkB antibody. The pTyr levels were quantified by densitometry, normalized to total TrkB levels, and then compared to those of WT controls. n = 3 per group. (B) WT mouse brain lysates were subjected to IP with an anti-MDGA2 antibody and a control IgG, and immunoblotted (IB) for the components indicated. mBDNF, mature BDNF; ImBDNF, immature BDNF. […] Immunoprecipitated TrkB levels were quantified by densitometry, normalized to input levels, and compared to respective controls (set to one arbitrary units). n = 3 per group. […] Levels of phosphorylated proteins were quantified by densitometry, normalized to respective total protein levels and compared to controls (set to one arbitrary units). n = 6 per group. […] P-values were determined by two-tailed unpaired Student t-test in (A) and one-way ANOVA with Tukey’s multiple comparisons test in (H, I, J). *p < 0.05, **p < 0.01, ***p < 0.001, ns: not significant. […]

B1: MDGA2-V930I: MDGA2 with ASD-associated missense mutation V930I, GFP-tagged (protein)
chain: PPTVRIVHSGLACNIEEERYSERVYTIREGETLELTCLVTGHPRPQIRWTKTAGSASDRFQDSSVFNETLRITNIQRHQGGRYYCKAENGLGSPAIKSIRVDVYYLDDPVVTVHQSIGEAKEQFYYERTVFLRCVANSNPPVRYSWRRGQEVLLQGSDKGVEIYEPFFTQGETKILKLKNLRPQDYANYSCIASVRNVCNIPDKMVSFRLSNKTASPSIKLLVDDPIVVNPGEAITLVCVTTGGEPAPSLTWVRSFGTLPEKTVLNGGTLTIPAITSDDAGTYSCIANNNVGNPAKKSTNIIVRALKKGRFWITPDPYHKDDNIQIGREVKISCQVEAVPSEELTFSWFKNGRPLRSSERMVITQTDPDVSPGTTNLDIIDLKFTDFGTYTCVASLKGGGISDISIDVNISSSTVPPNLTVPQEKSPLVTREGDTIELQCQVTGKPKPIILWSRADKEVAMPDGSMQMESYDGTLRIVNVSREMSGMYRCQTSQYNGFNVKPREALVQLIVQYPPAVEPAFLEIRQGQDRSVTMSCRVLRAYPIRVLTYEWRLGNKLLRTGQFDSQEYTEYAVKSLSNENYGVYNCSIINEAGAGRCSFLVTGKAYAPEFYYDTYNPVWQNRHRVYSYSLQWTQMNPDAVDRIVAYRLGIRQAGQQRWWEQEIKINGNIQKGELITYNLTELIKPEAYEVRLTPLTKFGEGDSTIRVIKYSAPVNPHLREFHCGFEDGNICLFTQDDTDNFDWTKQSTATRNTKYTPNTGPNADRSGSKEGFYMYIETSRPRLEGEKARLLSPVFSIAPKNPYGPTNTAYCFSFFYHMYGQHIGVLNVYLRLKGQTTIENPLWSSSGNKGQRWNEAHVNIYPITSFQLIFEGIRGPGIEGDIAIDDVSIAEGECAKQDLATKNSID
modifications: left off: GFP, end not stated, kept
notes: MDGA2 with ASD-associated missense mutation V930I, GFP-tagged
As to B1, in assay [1], the “cell surface levels (biotinylation)” value was “significantly lower than those of WT MDGA2”. For the same molecule, the “aberrant activation of TrkB/Akt signaling upon re-expression” value in assay [2] was “did not inhibit the aberrant activation of the TrkB/Akt signaling as WT MDGA2 did”. Moreover, the “interaction with TrkB (IP) vs WT MDGA2” value in assay [3] is recorded as “significantly decreased compared to that of WT MDGA2”. In addition, the “cell surface distribution (immunostaining)” value in assay [4] is reported as “cell surface distribution was much less than that of WT MDGA2”.

B2: brain-derived neurotrophic factor (protein)
chain: APMKEVNVHGQGNLAYPGVRTHGTLESVNGPRAGSRGLTTTSLADTFEHVIEELLDEDQKVRPNEENHKDADLYTSRVMLSSQVPLEPPLLFLLEEYKNYLDAANMSMRVRRHSDPARRGELSVCDSISEWVTAADKKTAVDMSGGTVTVLEKVPVSKGQLKQYFYETKCNPMGYTKEGCRGIDKRHWNSQCRTTQSYVRALTMDSKKRIGWRFIRIDTSCVCTLTIKRGR
Regarding B2, the “repetitive self-grooming behavior and anxiety-like behavior” value in assay [5] (overexpression of BDNF, neonatally isolated rats) is “rescued repetitive self-grooming behavior and anxiety-like behavior”. Besides, the social deficits result in assay [5] (valproic acid-exposed mice) is “attenuated social deficits in valproic acid-exposed mice”. Also, the “Phosphorylation of TrkB induced by BDNF” value in assay [6] was “showed a dose-dependent manner and was much stronger in Mdga2^ +/− and Mdga2^−/− neurons than in WT neurons”.
